B1: Sex-determining transformer protein 1 (Caenorhabditis elegans), P34708 (parent)
chain: MMAPSTEDPDTVVEAQRRGSFSKKKNANGWNKVELVDQCAKQMGSEDKQPGGGDVKTENDPSKNGLGSATSNFIQSSVPPSHQTLSNPLQLSPPAEASVAQQSGASQVFPTFQAALGASSDELLQPNATSSSTSSSASTSSIVPVVKFTNQTAPNGSTVATSVGQNVRLTINGKRVGRPPGTFKRPQNNAANSSNSGNDSDMMGDHDLTCRWKSCNSSFQTLKALVDHVQESHVQSTEQEHHAWRCEWEGCDRNETFKALYMLIVHVRRHTGEKPNKCEYPGCGKEYSRLENLKTHRRTHTGEKPYKCEFADCEKAFSNASDRAKHQNRTHSNLKPYSCQIPQCTKSYTDPSSLRKHIKAVHGDDEYEKAKKSRPANYSNRRRPDHRLAPPTGAMSHPYLATPNSGASVVAHSSVHQQNFINMALAQHHHNAQRAQQLMAATGNVMPMMDPASAAAAAQAQAHHQAQAQMLQTHMMQQAQIQAAAQMQAQVQHQAAMQAHAMQQAQMVLQNNLLGAQSLLSPFSPLLPPSRAPNVMAMLQTPPTPTSVAPMFDIMTSRAPMAPVVSAPTAPAPLVPAPVPASPVFDELREQMREVEPLQQQQQQEPMDQDLQDIRVDGDSDDEDEEEPRTPSGALLLPRGGNNGDGGFGGSGSSRASSGSGTMELSAAPISQNGSRASGSGERGMRSFLIADILQLAADFQNERLLSDVLDLAIFDTRDVRSLHNIYQVYIRAHKAIPITRRPLDWNETHQLHNLYHDPRFNRAEHQDSPAIRDRDTRFWRTIAEANTMRQRQIEPVPLDDDDEGYFDEMVHRVQNGRLNEQFMEGFESDDDDGFEDEDDVPGLGIAVYRGRRRVRREALKQANLDIQEAETAGRNVGGFGDEEDRNNRGHDQDRSFLDHYYPPMVVVVETESPQIVRDQEMMRQFEEAKKNVETDEIKKRAEAMQFGTSSSHHHTKTLLIQRALFDKTSSVRRSLLQFITISVDQEELRQSCHATSAPQGAHVVHNVVDEFDSIMRAQEDSNNRILLSLDIPAPSAVTGVSGSITHADNSALQLQQEQPTSSFSSWFPEDDPIYALPPPPPPPAPPRRRRSADNKDDSENIPKKPRHQF
partner: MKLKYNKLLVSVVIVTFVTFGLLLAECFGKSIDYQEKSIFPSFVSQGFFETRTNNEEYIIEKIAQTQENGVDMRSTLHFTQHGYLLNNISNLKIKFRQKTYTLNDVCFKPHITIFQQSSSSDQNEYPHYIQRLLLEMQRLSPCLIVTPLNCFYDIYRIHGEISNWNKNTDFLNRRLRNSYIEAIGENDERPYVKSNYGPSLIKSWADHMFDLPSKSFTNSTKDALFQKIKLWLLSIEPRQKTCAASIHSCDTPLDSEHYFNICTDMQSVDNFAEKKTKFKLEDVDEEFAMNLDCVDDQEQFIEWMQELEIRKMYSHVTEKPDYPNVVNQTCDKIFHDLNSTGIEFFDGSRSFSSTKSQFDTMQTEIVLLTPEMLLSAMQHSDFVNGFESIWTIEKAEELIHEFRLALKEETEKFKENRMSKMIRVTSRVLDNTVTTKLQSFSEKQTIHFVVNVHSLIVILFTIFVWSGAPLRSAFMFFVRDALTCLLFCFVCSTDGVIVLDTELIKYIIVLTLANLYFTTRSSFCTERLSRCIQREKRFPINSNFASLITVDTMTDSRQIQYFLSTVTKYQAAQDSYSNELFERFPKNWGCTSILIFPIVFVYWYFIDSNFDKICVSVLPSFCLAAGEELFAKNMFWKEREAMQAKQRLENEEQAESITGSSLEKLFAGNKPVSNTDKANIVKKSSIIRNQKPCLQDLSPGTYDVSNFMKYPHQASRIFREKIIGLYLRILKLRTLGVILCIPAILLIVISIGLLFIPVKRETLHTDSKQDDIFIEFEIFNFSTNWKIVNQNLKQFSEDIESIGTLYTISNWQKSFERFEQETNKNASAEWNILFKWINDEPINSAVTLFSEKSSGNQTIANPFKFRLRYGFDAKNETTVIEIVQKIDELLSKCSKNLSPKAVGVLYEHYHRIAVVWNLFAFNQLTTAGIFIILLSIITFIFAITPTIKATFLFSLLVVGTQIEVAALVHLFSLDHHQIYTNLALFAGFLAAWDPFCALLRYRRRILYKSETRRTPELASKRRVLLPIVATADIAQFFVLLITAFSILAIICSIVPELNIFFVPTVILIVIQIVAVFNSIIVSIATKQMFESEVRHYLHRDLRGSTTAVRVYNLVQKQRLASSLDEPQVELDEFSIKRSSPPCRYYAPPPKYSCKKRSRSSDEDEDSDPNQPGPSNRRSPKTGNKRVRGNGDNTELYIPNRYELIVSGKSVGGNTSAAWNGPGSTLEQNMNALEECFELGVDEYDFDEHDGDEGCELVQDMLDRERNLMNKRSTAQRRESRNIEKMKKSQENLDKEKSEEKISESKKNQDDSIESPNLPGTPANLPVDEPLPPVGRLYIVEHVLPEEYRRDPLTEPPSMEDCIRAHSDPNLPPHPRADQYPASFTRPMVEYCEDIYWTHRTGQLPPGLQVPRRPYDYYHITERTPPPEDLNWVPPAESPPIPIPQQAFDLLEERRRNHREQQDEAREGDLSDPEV
B2: Sex-determining transformer protein 2 (Caenorhabditis elegans), P34709 (parent)
chain: B1 partner
partner: B1 chain

Variants of: B1
Details: with tra2_caeel tra-2, P34709

effect of a mutation on the interaction	Variant
decreasing interaction	L723F

Variants of: B2
Details: with tra1_caeel tra-1, P34708

effect of a mutation on the interaction	Variant
decreasing interaction	C1392Y;E1393K;R1400Q

Source: IntAct's records for PubMed 11124807
